Laboratory results published in patent publication US20220144957A1 (IMMUNECENT BIOTECHNOLOGY, published 2022).
Residue numbers refer to the chain shown, from its start. Names and notes keep the numbering of the source. Read-outs that look alike come from different tables or passages of the source.

Tests used:
[1] = target: T1, human IFNAR1, full length (IFNAR1-aa1-557) (human) (UniProt P17181); assay: cell-based or functional assay
T1 sequence (looked up): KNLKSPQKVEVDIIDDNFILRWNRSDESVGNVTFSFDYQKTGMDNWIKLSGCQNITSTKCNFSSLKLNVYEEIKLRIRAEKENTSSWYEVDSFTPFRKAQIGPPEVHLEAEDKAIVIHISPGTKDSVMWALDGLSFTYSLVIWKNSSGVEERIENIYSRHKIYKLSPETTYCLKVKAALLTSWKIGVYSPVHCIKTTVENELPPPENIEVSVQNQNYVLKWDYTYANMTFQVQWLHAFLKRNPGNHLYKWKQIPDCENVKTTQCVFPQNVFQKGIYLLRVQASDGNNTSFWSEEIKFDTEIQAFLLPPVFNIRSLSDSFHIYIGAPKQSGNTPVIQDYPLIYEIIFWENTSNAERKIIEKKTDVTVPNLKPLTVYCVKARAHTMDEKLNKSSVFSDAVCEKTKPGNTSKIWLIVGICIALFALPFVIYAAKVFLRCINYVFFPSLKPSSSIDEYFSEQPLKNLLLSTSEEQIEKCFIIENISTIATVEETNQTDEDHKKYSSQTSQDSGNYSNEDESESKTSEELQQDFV

[2] = target: T2, human IFNAR1, full length (IFNAR1-aa1-557) (human, UniProt P17181 28-557); assay: flow cytometry on cells expressing human IFNAR1, MFI of PE
T2 construct: whole, on cells; Overexpressed on HEK293T cells from pIRES2-EGFP-IFNAR1; also used here for the human IFNAR1 of the IFN-I reporter cells and the cells of the virus assays; also called IFNAR1-WT; wild type IFNAR1
T2 sequence (looked up): T1 sequence (looked up)

[3] = target: T3, Human IFNAR1 SD1-SD4 (human, UniProt P17181 28-436, limits assumed); assay: SPR (Biacore 8K), antibody captured on anti-human IgG Fc, antigen injected
T3 construct: domain: SD1-SD4; Antigen injected in the Biacore assay
T3 sequence (looked up): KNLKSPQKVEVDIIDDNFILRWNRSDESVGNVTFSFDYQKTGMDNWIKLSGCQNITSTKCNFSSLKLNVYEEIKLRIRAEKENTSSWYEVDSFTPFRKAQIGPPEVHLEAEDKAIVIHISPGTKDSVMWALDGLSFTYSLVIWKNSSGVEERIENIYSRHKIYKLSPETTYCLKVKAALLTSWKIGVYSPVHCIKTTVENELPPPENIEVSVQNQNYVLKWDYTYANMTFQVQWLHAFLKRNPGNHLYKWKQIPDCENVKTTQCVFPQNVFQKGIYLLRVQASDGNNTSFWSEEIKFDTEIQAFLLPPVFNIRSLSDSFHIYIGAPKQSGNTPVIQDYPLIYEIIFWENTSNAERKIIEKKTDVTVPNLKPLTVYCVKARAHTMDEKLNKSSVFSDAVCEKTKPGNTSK
Protocol: Preparation of a CM5 chip surface: Using HBS-EP+ (10 mM HEPES, 150 mM NaCl, 3 mM EDTA, 0.05% surfactant P20) as running buffer, both channel 1&2 of a CM5 sensor chip (GE Healthcare, BR-1000-30) were activated with a fresh mixture of 50 mM NHS and 200 mM EDC (1:1). Anti-human IgG Fc, 20 μg/ml in 10 mM NaOAc buffer (pH 5.0), was then passed over the activated surface of the two flow cells in each channel at 10 l/min (target around 10000 RU). […] Low flow rate was maintained over 2 hours for the equilibrium of the immobilized protein.
Measurement of binding kinetics: Each antibody was captured in flow cell FC2 in channel 1&2 around 250 RU respectively, using FC1 as the reference cell, followed by injection of antigen samples at varying concentrations. The signals with captured antibody subtracted from that without captured antibody were calculated with Biacore 8K evaluation software. The running buffer was HBS-EP+(10 mM HEPES, 150 mM NaCl, 3 mM EDTA, 0.05% surfactant P20).

[4] = target: T4, human IFNAR1 ECD (human, UniProt P17181 28-436); assay: ELISA, plate coated with human IFNAR1 ECD, anti-human IgG Fc-peroxidase, OD450
T4 construct: extracellular domain; Coated on ELISA plates at 5 ug/ml
T4 sequence (looked up): T3 sequence (looked up)
Protocol: 96-well plates were coated with 100ul 5 ug/ml human IFNAR1 ECD in 1×PBS and incubate at 4° C. overnight. The plates were then washed with PBST (1×PBS+0.05% Tween20) for 3 times and blocked with the blocking buffer (1×PBS+0.05% Tween20+1% BSA) at RT for 2 hr. […] The plates were washed with PBST for 3 times, followed by addition of antibody (Anti-Human IgG (Fc specific)-Peroxidase antibody produced in goat, ZSGB-BIO) at 100ul/well and then incubated at RT for 1 hr. The plates were washed with PBST 5 times and then 100ul/well TMB was added and after 15 minutes, the plates were quenched with 50ul/well 2N H₂SO₄. The plates were read with Molecular device spectra max at 450 nm.

[5] = target: T1, human IFNAR1, full length (IFNAR1-aa1-557) (human); assay: cell-based or functional assay; remark: listed apart in the source
[6] = target: T2, human IFNAR1, full length …; assay: flow cytometry on cells expressing human IFNAR1, MFI of PE; remark: listed apart in the source

## Human IFNω (from UniProt P05000 24-195) (ligand)
[1]
  percentage of GFP positive cells in IFN-I reporter cells, 50 pg/ml IFNω against Mock control: > 5 fold

## Human IFNβ (from UniProt P01574 22-187) (ligand)
[1]
  percentage of GFP positive cells in IFN-I reporter cells, 50 pg/ml IFNβ against Mock control: > 5 fold

B1: 7G4 Chimeric (antibody, V domains shown)
VH: QVQLQQPGAELVKPGAPVKLSCKASGYTFTSYWMNWVRQRPGRGLEWIGKIDPSDSETHFNQKFRDKATLTVDKSSTTAYIQLSSLTSEDSAVYYCARGGRISFDYDAALDYWGQGTSVTVSS
VL: DILMTQSSSSFSVSLGDRVTITCKSSEVIYNRLAWFQQKPGNAPRLLISGATTLESGFPSRFSGSGSGKDYTLSITSLQIEDVSTYYCQQYWNKPFTFGSGTKLEVK
[2]
  EC50 (read off the curve): ~0.04 µg/mL
[3]
  Kd: 0.765 nM
  koff: 0.000349 s⁻¹
  kon: 456000 M⁻¹ s⁻¹
[4]
  EC50: 0.00465 µg/mL
  Top: 3.27 OD450

B2: IFNAR1 monoclonal antibody 10C2 (antibody, from another filing, V domains shown)
VH: QIQLVQSGPELKKPGETVKISCKASGYTFTNYGMNWVKQAPGKGLKWMGWINTYTGEPTYSDDFKGRFAFSLETSASTANLQINNLKDEDAATYFCAREGAIYYGDYVYFGVWGAGTTVTVSS
VL: DIVMTQSQKFMSTSVGDRVSITCKASQNVGTAVAWYQEKPGQSPKLLIYSASNRYTGVPDRFTGSGSGTAFTLTISNMQSEDLADYFCQQYYNYPLTFGAGTKLEVKR
[5]
  blocking effect on GFP expression induced by IFNα1 in IFN-I reporter cells (++ = greater than 80%): > 80%
  blocking effect on GFP expression induced by IFNα2a in IFN-I reporter cells (++ = greater than 80%): > 80%
  blocking effect on GFP expression induced by IFNα2b in IFN-I reporter cells (++ = greater than 80%): > 80%
  blocking effect on GFP expression induced by IFNα4 in IFN-I reporter cells (++ = greater than 80%): > 80%
  blocking effect on GFP expression induced by IFNα5 in IFN-I reporter cells (++ = greater than 80%): > 80%
  blocking effect on GFP expression induced by IFNα6 in IFN-I reporter cells (++ = greater than 80%): > 80%
  blocking effect on GFP expression induced by IFNα7 in IFN-I reporter cells (++ = greater than 80%): > 80%
  blocking effect on GFP expression induced by IFNα8 in IFN-I reporter cells (++ = greater than 80%): > 80%
  blocking effect on GFP expression induced by IFNα10 in IFN-I reporter cells (++ = greater than 80%): > 80%
  blocking effect on GFP expression induced by IFNα14 in IFN-I reporter cells (++ = greater than 80%): > 80%
  blocking effect on GFP expression induced by IFNα16 in IFN-I reporter cells (++ = greater than 80%): > 80%
  blocking effect on GFP expression induced by IFNα17 in IFN-I reporter cells (++ = greater than 80%): > 80%
  blocking effect on GFP expression induced by IFNα21 in IFN-I reporter cells (++ = greater than 80%): > 80%
  blocking effect on GFP expression induced by IFNω in IFN-I reporter cells (++ = greater than 80%): > 80%
  fold decrease in percentage of GFP positive reporter cells with serum from SLE patients: 3 fold
  percentage of GFP positive reporter cells with human IFNβ and 10 µg/mL antibody: 20%

B3: IFNAR1 monoclonal antibody 10C9 (antibody, from another filing, V domains shown)
VH: QIQLVQSGPELKKPGETVKISCKASGYTFTNYGVNWMKQAPGKGLKWMGWINTYTGEPTYADDFKGRFAFSLETSASTAYLQINNLKNEDTATYFCAREGVYYYGDWAWLAYWGQGTLVTVSA
VL: DIVMTQSQKFISTSVGDRVSVTCKASQNVGTNVAWYQQKPGQSPKTLIYSTSYRYNGVPDRFTGSGSGTDFTLTISNVQSEDLAEYFCQQYNSYYTFGGGTKLEIK
[5]
  blocking effect on GFP expression induced by IFNα1 in IFN-I reporter cells (++ = greater than 80%): > 80%
  blocking effect on GFP expression induced by IFNα2a in IFN-I reporter cells (++ = greater than 80%): > 80%
  blocking effect on GFP expression induced by IFNα2b in IFN-I reporter cells (++ = greater than 80%): > 80%
  blocking effect on GFP expression induced by IFNα4 in IFN-I reporter cells (++ = greater than 80%): > 80%
  blocking effect on GFP expression induced by IFNα5 in IFN-I reporter cells (++ = greater than 80%): > 80%
  blocking effect on GFP expression induced by IFNα6 in IFN-I reporter cells (++ = greater than 80%): > 80%
  blocking effect on GFP expression induced by IFNα7 in IFN-I reporter cells (++ = greater than 80%): > 80%
  blocking effect on GFP expression induced by IFNα8 in IFN-I reporter cells (++ = greater than 80%): > 80%
  blocking effect on GFP expression induced by IFNα10 in IFN-I reporter cells (++ = greater than 80%): > 80%
  blocking effect on GFP expression induced by IFNα14 in IFN-I reporter cells (++ = greater than 80%): > 80%
  blocking effect on GFP expression induced by IFNα16 in IFN-I reporter cells (++ = greater than 80%): > 80%
  blocking effect on GFP expression induced by IFNα17 in IFN-I reporter cells (++ = greater than 80%): > 80%
  blocking effect on GFP expression induced by IFNα21 in IFN-I reporter cells (++ = greater than 80%): > 80%
  blocking effect on GFP expression induced by IFNω in IFN-I reporter cells (++ = greater than 80%): > 80%

B4: Hu4-14 (antibody, V domains shown)
VH: QVQLVQSGAEVKKPGASVKVSCKASGYTFTSYWMNWVRQAPGQGLEWMGKIDPSDSETHFNQKFRDRVTLTVDKSTSTVYMELSSLRSEDTAVYYCARGGRISFDYDAALDYWGQGTLVTVSS
VL: DIQMTQSPSSLSASVGDRVTITCKSSEVIYNRLAWYQQKPGNAPKLLISGATTLESGVPSRFSGSGSGKDYTLTISSLQPEDFATYYCQQYWNKPFTFGQGTKLEIK
notes: Humanized 7G4 variant
[3]
  Kd: 0.461 nM
  koff: 0.000214 s⁻¹
  kon: 465000 M⁻¹ s⁻¹
[4]
  EC50: 0.00227 µg/mL
  Top: 3.1 OD450

B5: Hu4-6-mut-3 (antibody, V domains shown)
VH: B4 VH with A108G
VL: B4 VL with N42K, S49Y, T53S, S56T
notes: Hu4-6 with A108G in VH and T53S and S56T in VL
[6]
  EC50 (read off the curve): ~0.06 µg/mL

B6: Hu4-6-mut-1 (antibody, V domains shown)
VH: B4 VH with A108G
VL: B4 VL with N42K, S49Y
notes: Hu4-6 with A108G in VH (HCDR3)
[6]
  EC50 (read off the curve): ~0.07 µg/mL

B7: Hu4-6-mut-2 (antibody, V domains shown)
VH: B4 VH
VL: B4 VL with N42K, S49Y, T53S, S56T
notes: Hu4-6 with T53S and S56T in VL (LCDR2)
[6]
  EC50 (read off the curve): ~0.06 µg/mL

B8: Hu4-16 (antibody, V domains shown)
VH: B4 VH with A40R, M48I
VL: B4 VL
notes: Humanized 7G4 variant
[3]
  Kd: 0.466 nM
  koff: 0.00021 s⁻¹
  kon: 451000 M⁻¹ s⁻¹
[4]
  EC50: 0.00315 µg/mL
  Top: 3.31 OD450

B9: Hu4-13 (antibody, V domains shown)
VH: B4 VH with L70M, V72R, K74T
VL: B4 VL
notes: Humanized 7G4 variant
[2]
  EC50 (read off the curve): ~0.04 µg/mL
[3]
  Kd: 0.671 nM
  koff: 0.000301 s⁻¹
  kon: 449000 M⁻¹ s⁻¹
[4]
  EC50: 0.00327 µg/mL
  Top: 3.4 OD450

B10: Hu4-6 (antibody, V domains shown)
VH: B4 VH
VL: B4 VL with N42K, S49Y
notes: Humanized 7G4 variant
[2]
  EC50 (read off the curve): ~0.04 µg/mL
[6]
  EC50 (read off the curve): ~0.06 µg/mL
[3]
  Kd: 0.633 nM
  koff: 0.000281 s⁻¹
  kon: 444000 M⁻¹ s⁻¹
[4]
  EC50: 0.00321 µg/mL
  Top: 3.35 OD450

B11: Hu4-15 (antibody, V domains shown)
VH: B4 VH with M48I
VL: B4 VL
notes: Humanized 7G4 variant
[3]
  Kd: 0.442 nM
  koff: 0.000209 s⁻¹
  kon: 472000 M⁻¹ s⁻¹
[4]
  EC50: 0.00284 µg/mL
  Top: 3.46 OD450
